Results from the supplement of paper PMC10567573.

B1: LRRC45 (parent)
chain: FQTRQEMTSMSAELKMRAIQAEER

Variants of: B1
Assay: protein stability index of a GFP-peptide fusion (GPS, HEK-293T) (PSI 1-6); higher = more stable
Conditions: c terminus: a fixed tail appended
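Further: lentivirally expressed fusions sorted by FACS into six bins by GFP to DsRed ratio, PSI derived from sequencing read proportions per bin multiplied by bin number.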

Variant	protein stability index
FQTREEMTSMSAELKMRAIQAEER [Q5E]	4.31
FQTRGEMTSMSAELKMRAIQAEER [Q5G]	4.85
FQTRIEMTSMSAELKMRAIQAEER [Q5I]	3.11
FQTRHEMTSMSAELKMRAIQAEER [Q5H]	3.54
FQTRKEMTSMSAELKMRAIQAEER [Q5K]	4.08
FQTRVEMTSMSAELKMRAIQAEER [Q5V]	3.97
FQTRAEMTSMSAELKMRAIQAEER [Q5A]	3.83
FQTRSEMTSMSAELKMRAIQAEER [Q5S]	3.97
FQTRLEMTSMSAELKMRAIQAEER [Q5L]	3.77
FQTRMEMTSMSAELKMRAIQAEER [Q5M]	3.32
FQTRREMTSMSAELKMRAIQAEER [Q5R]	3.7
FQTRWEMTSMSAELKMRAIQAEER [Q5W]	1.66
FQTRFEMTSMSAELKMRAIQAEER [Q5F]	2.04
FQTRPEMTSMSAELKMRAIQAEER [Q5P]	3.99
FQTRCEMTSMSAELKMRAIQAEER [Q5C]	2.82
FQTRNEMTSMSAELKMRAIQAEER [Q5N]	4.25
FQTRTEMTSMSAELKMRAIQAEER [Q5T]	3.65
FQTRYEMTSMSAELKMRAIQAEER [Q5Y]	1.79
FQFRQEMTSMSAELKMRAIQAEER [T3F]	3.95
FQNRQEMTSMSAELKMRAIQAEER [T3N]	3.52
FQKRQEMTSMSAELKMRAIQAEER [T3K]	4.28
FQHRQEMTSMSAELKMRAIQAEER [T3H]	3.42
FQPRQEMTSMSAELKMRAIQAEER [T3P]	4.04
FQRRQEMTSMSAELKMRAIQAEER [T3R]	3.55

Variant	protein stability index
FQLRQEMTSMSAELKMRAIQAEER [T3L]	3.76
FQMRQEMTSMSAELKMRAIQAEER [T3M]	3.52
FQERQEMTSMSAELKMRAIQAEER [T3E]	5.23
FQGRQEMTSMSAELKMRAIQAEER [T3G]	3.72
FQQRQEMTSMSAELKMRAIQAEER [T3Q]	3.83
FQARQEMTSMSAELKMRAIQAEER [T3A]	4.32
FQDRQEMTSMSAELKMRAIQAEER [T3D]	4.4
FQCRQEMTSMSAELKMRAIQAEER [T3C]	3.02
FQSRQEMTSMSAELKMRAIQAEER [T3S]	3.97
FQVRQEMTSMSAELKMRAIQAEER [T3V]	3.43
FQWRQEMTSMSAELKMRAIQAEER [T3W]	2.06
FQYRQEMTSMSAELKMRAIQAEER [T3Y]	3.22
FQIRQEMTSMSAELKMRAIQAEER [T3I]	3.86
FQTPQEMTSMSAELKMRAIQAEER [R4P]	4.62
FQTSQEMTSMSAELKMRAIQAEER [R4S]	4.39
FQTKQEMTSMSAELKMRAIQAEER [R4K]	4.08
FQTLQEMTSMSAELKMRAIQAEER [R4L]	4.4
FQTIQEMTSMSAELKMRAIQAEER [R4I]	4.09
FQTTQEMTSMSAELKMRAIQAEER [R4T]	4.46
FQTEQEMTSMSAELKMRAIQAEER [R4E]	4.95
FQTCQEMTSMSAELKMRAIQAEER [R4C]	4.63
FQTMQEMTSMSAELKMRAIQAEER [R4M]	3.94
FQTAQEMTSMSAELKMRAIQAEER [R4A]	4.09
FQTGQEMTSMSAELKMRAIQAEER [R4G]	4.34

Variant	protein stability index
FQTVQEMTSMSAELKMRAIQAEER [R4V]	3.77
FQTDQEMTSMSAELKMRAIQAEER [R4D]	4.99
FQTYQEMTSMSAELKMRAIQAEER [R4Y]	3.88
FQTFQEMTSMSAELKMRAIQAEER [R4F]	3.37
FQTWQEMTSMSAELKMRAIQAEER [R4W]	2.48
FQTQQEMTSMSAELKMRAIQAEER [R4Q]	4.14
FQTHQEMTSMSAELKMRAIQAEER [R4H]	3.66
FQTNQEMTSMSAELKMRAIQAEER [R4N]	4.35
WQTRQEMTSMSAELKMRAIQAEER [F1W]	4.66
LQTRQEMTSMSAELKMRAIQAEER [F1L]	5.21
CQTRQEMTSMSAELKMRAIQAEER [F1C]	4.85
HQTRQEMTSMSAELKMRAIQAEER [F1H]	4.85
GQTRQEMTSMSAELKMRAIQAEER [F1G]	4.46
AQTRQEMTSMSAELKMRAIQAEER [F1A]	4.88
QQTRQEMTSMSAELKMRAIQAEER [F1Q]	5.21
PQTRQEMTSMSAELKMRAIQAEER [F1P]	4.5
SQTRQEMTSMSAELKMRAIQAEER [F1S]	5.1
RQTRQEMTSMSAELKMRAIQAEER [F1R]	4.42
VQTRQEMTSMSAELKMRAIQAEER [F1V]	4.92
MQTRQEMTSMSAELKMRAIQAEER [F1M]	4.52
NQTRQEMTSMSAELKMRAIQAEER [F1N]	5.13
TQTRQEMTSMSAELKMRAIQAEER [F1T]	5.21
IQTRQEMTSMSAELKMRAIQAEER [F1I]	4.27
KQTRQEMTSMSAELKMRAIQAEER [F1K]	5.1

Variant	protein stability index
EQTRQEMTSMSAELKMRAIQAEER [F1E]	4.91
YQTRQEMTSMSAELKMRAIQAEER [F1Y]	4.02
DQTRQEMTSMSAELKMRAIQAEER [F1D]	5.24
FYTRQEMTSMSAELKMRAIQAEER [Q2Y]	3.78
FMTRQEMTSMSAELKMRAIQAEER [Q2M]	4.3
FDTRQEMTSMSAELKMRAIQAEER [Q2D]	4.48
FETRQEMTSMSAELKMRAIQAEER [Q2E]	5.13
FHTRQEMTSMSAELKMRAIQAEER [Q2H]	2.27
FWTRQEMTSMSAELKMRAIQAEER [Q2W]	4.01
FKTRQEMTSMSAELKMRAIQAEER [Q2K]	3.59
FVTRQEMTSMSAELKMRAIQAEER [Q2V]	2.23
FTTRQEMTSMSAELKMRAIQAEER [Q2T]	3.92
FFTRQEMTSMSAELKMRAIQAEER [Q2F]	4.36
FCTRQEMTSMSAELKMRAIQAEER [Q2C]	3.29
FRTRQEMTSMSAELKMRAIQAEER [Q2R]	4.18
FATRQEMTSMSAELKMRAIQAEER [Q2A]	3.67
FGTRQEMTSMSAELKMRAIQAEER [Q2G]	4.85
FLTRQEMTSMSAELKMRAIQAEER [Q2L]	3.76
FITRQEMTSMSAELKMRAIQAEER [Q2I]	2.93
FSTRQEMTSMSAELKMRAIQAEER [Q2S]	4.85
FNTRQEMTSMSAELKMRAIQAEER [Q2N]	3.89
FPTRQEMTSMSAELKMRAIQAEER [Q2P]	4.69
